Reference: patent US12606817B2, “Methods of creating and screening DNA-encoded libraries” (X-Chem, Inc., priority 2009, dated 2026)

Assay: solubility of headpiece in organic solvent (DMF)
Type: physicochemical
Settings: DMF/water reaction mixture
Description: In order to prepare a “library of 1,” a model compound, 5-(4,6-dichlorotriazinyl-aminofluorescein) (DTAF; Anaspec) (FIG. 12), was coupled to the amino group of HP-1. DTAF structurally represents a trichlorotriazine scaffold with one amino compound coupled. To form a library, trichlorotriazine scaffolds can be derivatized with a diversity of building blocks at each of the three chlorine positions. DTAF also provides a fluorescent label to the model library. The reaction (10 μl) was set up as follows. To 5 μl of 400 μM HP-1 dissolved in water, 2 μl of 750 mM borate buffer, pH 9.5, and 1 μl of DMF were added. DTAF was dissolved in DMF to 50 mM and 2 μl was added to the reaction. Final concentrations of the HP-1 and DTAF were 200 μM and 10 mM, respectively, thus generating a 50-fold excess of DTAF. The final DMF concentration was 30%. […] The reaction was allowed to proceed at 4° C. for 16-20 hours. The reaction mixture was then diluted with water to 30-50 μl and desalted on a Zeba spin column (Pierce). No further purification was completed at this point.

Substance: HP-1: hairpin oligonucleotide headpiece (SEQ ID NO: 51) with amino-PEG2000 linker on C5-amino-modified dT (DNA TCCTGGCTGAGGCGAGAGTTTTTCTCTCGCCTCAGCCAGGACC; amino-PEG2000 linker on C5-amino-modified dT; modified_base (21)..(21) dT-C6-NH)
- stayed soluble in up to % DMF: up to 90 % DMF
